Tests used:
PKC-delta = target: T1, PKC-delta (Homo sapiens, UniProt Q05655); assay: In vitro kinase assay: peptide phosphorylation by PKC-delta; format: biochemical
T1 construct: purchased Calbiochem
In short: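 Biotin-Lys-dansyl-Lys-Pro-Pro-Gly-linked proteomic peptides (12–21-residue core) phosphorylated by PKC-delta in HEPES/Triton/CaCl2/MgCl2 buffer with phosphatidyl serine and PMA, 100 μM [γ-32P]ATP, 30° C., ~10 min, stoichiometry ≤5%; streptavidin-plate capture. Signal normalized as % of best peptide substrate.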

PKC = assay: In vitro phosphorylation by PKC (average of isoforms alpha, epsilon, delta, theta); format: biochemical; details: average over PKC-theta, -epsilon and -alpha at 10 and 1 uM peptide, relative to best substrate
Procedure: The conditions of the kinase assay and the amount of active kinase used varied with the kinase and with the accuracy needed. For a typical experiment, 5-20 ng of kinase was used per well and each peptide pool was assayed in duplicate wells. Note that the absolute amount of kinase used was not usually a critical parameter, because the desired information related to specificity of the kinase not its absolute activity, and robustness of the assay depends on comparisons of the same amount of kinase on different peptides. The combination of kinase concentration and assay duration was modified to assure that the stoichiometry of peptide phosphorylation never exceeded 5%. The choice of kinase buffer depended on the kinase being analyzed. For studies of PKC, 100 mM HEPES, 0.05% Triton-X100, 1 mM CaCl2, 20 mM MgCl2, 0.2 mg/ml phosphatidyl serine (Avanti Polar Lipids), PMA 100 ng/ml was typically used. The lipid stock was prepared by transferring 3 mg phosphatidyl serine into iced mixture of 450 μl water plus 50 μl of 10% Triton-X100, sonicating 10 times on ice for 1 sec each.
The kinase reaction mixture was assembled by sequential addition to a tube held on ice of: 5 μl peptide (100 μM for final concentration of 10 μM), 15 μl of kinase (typically 5 ng/well, in appropriate kinase buffer), 30 μl of ATP (1 uCi/well of ^32P-gamma ATP in a stock of 167 μM cold ATP in the kinase buffer; for final concentration for 100 μM ATP). The mixture was rapidly warmed to desired reaction temperature (30° C. for PKC) and incubated for the desired duration (usually 10 minutes). The kinase assay was terminated by transfer to 4° C. water batch, and rapid addition of an equal volume (50 μl) of stop solution [0.1M ATP+0.1M EDTA in water, pH 8].
The peptides were then captured from the reaction mixture by transfer to a Reacti-Bind Streptavidin High Binding Capacity Coated Plates (HBC) (Pierce Biotechnology) as follows. The HBC plates were pre-rinsed three times with PBS/Tween PBS/Tween20 0.05% (PBS/Tween). Part of all of the reaction mixture was then transferred wells of a HBC plate pre-filled with 90 μl of phosphate-buffered saline (PBS); typically each aliquots of each phosphorylation reaction were transferred to duplicate HBC plates to assure accuracy by additional replication
For kinase assays done at the standard peptide concentration of 10 μM, the peptide concentration in the reaction mixture becomes 5 μM after addition of the stop solution; consequently 10 μl of the reaction (50 pMoles of peptide) was transferred to the HBC plate. More generally, the amount of reaction mixture transferred was estimated to be about 50 pMoles of peptide. […] The HBC plates were incubated for 0.5 to 1.5 hr at room temperature for complete binding of biotinylated peptides to plate-bound streptavidin. The HBC plates were then washed extensively with PBS/Tween. Five washes were done routinely and additional wash steps were added if the wash solution removed from the plate had measurable radioactivity as detected using a Geiger counter. This step is essential to obtaining a good the signal to noise ratio because the fraction of radioactivity incorporated in the peptides was a tiny fraction of the total in the reaction mixture. The wells were air-dried. A volume of 40-50 μl of microScint-20 (Packard Instruments) was added to each well. The plates were covered with stick-on film sheet. Radioactive emissions were measured in a TopCount NXT Microplate Scintillation and Luminescence Counter (Packard Instruments). Typically samples were counted for 5 minutes (or more) to improve the signal to noise ratio when counts were low.
Many peptides that are good substrates for PKC enzymes were identified using the methods of the invention. For example, Tables 4 and 5 provide a listing of peptides identified as potentially useful kinase substrates. […]

T1 sequence (Q05655 whole entry): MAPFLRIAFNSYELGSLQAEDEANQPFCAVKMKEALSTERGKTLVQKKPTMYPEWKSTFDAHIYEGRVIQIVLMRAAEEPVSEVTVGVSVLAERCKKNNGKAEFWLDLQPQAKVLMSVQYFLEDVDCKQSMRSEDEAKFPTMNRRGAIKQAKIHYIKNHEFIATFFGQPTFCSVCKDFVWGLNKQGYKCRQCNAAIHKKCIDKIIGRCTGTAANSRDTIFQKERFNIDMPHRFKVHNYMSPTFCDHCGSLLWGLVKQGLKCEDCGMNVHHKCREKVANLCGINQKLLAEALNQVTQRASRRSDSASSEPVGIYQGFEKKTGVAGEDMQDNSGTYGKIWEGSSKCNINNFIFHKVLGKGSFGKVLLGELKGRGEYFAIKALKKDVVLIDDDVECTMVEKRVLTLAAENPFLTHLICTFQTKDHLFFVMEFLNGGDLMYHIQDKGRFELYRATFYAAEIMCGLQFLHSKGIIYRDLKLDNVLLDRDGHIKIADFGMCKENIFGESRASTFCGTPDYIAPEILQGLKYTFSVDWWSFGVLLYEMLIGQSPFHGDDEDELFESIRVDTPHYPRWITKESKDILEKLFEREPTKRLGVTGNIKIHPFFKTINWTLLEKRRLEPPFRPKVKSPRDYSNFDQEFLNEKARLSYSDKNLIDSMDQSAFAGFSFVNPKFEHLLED

| Substance | phosphorylation by PKC-delta (PKC-delta; peptide concentration 1 uM) | phosphorylation by PKC-delta (PKC-delta; peptide concentration 10 uM) | average (phosphorylation by PKC-theta, -delta, -epsilon, -alpha) (PKC) |
| --- | --- | --- | --- |
| 129 (VQRHRSMRKTFARYLSFRRD) [compound 129] | 32 | 14 | 40 |
| 130 (EYLERRASRRRAV) [compound 130] | 46 | 20 | 39 |
| 131 (WKGKRRSKARKKRK) [compound 131] | 38 | 29 | 38 |
| 132 (GFLNEPLSSKSQRRKSLKLK) [compound 132] | 41 | 47 | 38 |
| 133 (LEKRGMLGKRPRRKSSRRKK) [compound 133] | 46 | 52 | 37 |
| 134 (RSRSRSRSKSKDKRKSRKRS) [compound 134] | 44 | 16 | 34 |
| 135 (KKKFRTPSFLKKSKK) [compound 135] | 40 | 25 | 33 |
| 136 (RARRDSLKKIEIW) [compound 136] | 41 | 23 | 32 |
| 137 (PSKSPSKKKKKFRTPSFLKK) [compound 137] | 38 | 16 | 31 |
| 138 (EYLERRASRRRAV) [compound 138] | 49 | 28 | 31 |
| 139 (RPTPGDGEKRSRIKKSKKRK) [compound 139] | 31 | 24 | 30 |
| 140 (TELEGGFSRQRKRKLSFRRR) [compound 140] | 44 | 49 | 30 |
| 141 (VTDSQKRREILSRRPSYRKI) [compound 141] | 43 | 21 | 29 |
| 142 (ERHVAQKKSRLRRRASQLKI) [compound 142] | 30 | 36 | 28 |
| 143 (VRYTPYTISPYNRKGSFRKQ) [compound 143] | 33 | 32 | 28 |
| 144 (LSSMFGTLPRKSRKGSVRKQ) [compound 144] | 35 | 28 | 28 |
| 145 (ISDFGLAKKLAVGRHSFSRR) [compound 145] | 34 | 23 | 27 |

| Substance | phosphorylation by PKC-delta (PKC-delta; peptide concentration 1 uM) | phosphorylation by PKC-delta (PKC-delta; peptide concentration 10 uM) | average (phosphorylation by PKC-theta, -delta, -epsilon, -alpha) (PKC) |
| --- | --- | --- | --- |
| 146 (QAQRQIKRGAPPRRSSIRNA) [compound 146] | 33 | 14 | 27 |
| 147 (RDIRQSPKRGFLRSASLGRR) [compound 147] | 27 | 13 | 26 |
| 154 (KKFFTQGWAGWRKKTSFRKP) [compound 154] | 26 | 14 | 22 |
| 155 (RWDKRRWRKIPKRPGSVHRT) [compound 155] | 30 | 23 | 21 |
| 156 (SAQITIPKDGQKRKKSLRKK) [compound 156] | 29 | 31 | 20 |
| 157 (PSPSNETPKKKKKRFSFKKS) [compound 157] | 27 | 35 | 20 |
| 158 (VQMTWSYPDEKNKRASVRRR) [compound 158] | 18 | 33 | 19 |
| 159 (LYARLARAYRRSQRASFKRA) [compound 159] | 15 | 12 | 19 |
| 160 (PFEVVWYKDKRQLRSSKKYK) [compound 160] | 25 | 31 | 18 |
| 161 (KYKAFIRIPIPTRRHTFRRQ) [compound 161] | 22 | 14 | 18 |
| 162 (KKKFSFKKPFKLSGLSFKRN) [compound 162] | 21 | 13 | 17 |
| 163 (PPRTPGWHQLQPRRVSFRGE) [compound 163] | 13 | 21 | 16 |
| 164 (TEGKMARVAWKGKRRSKARK) [compound 164] | 18 | 26 | 16 |
| 165 (TEEKSKKRKKKHRKNSRKHK) [compound 165] | 25 | 19 | 16 |
| 166 (MAQIERGEARIQRRISIKKA) [compound 166] | 13 | 29 | 15 |
| 167 (GLPAPGEDKSIYRRGSRRWR) [compound 167] | 13 | 24 | 15 |
